{"source": "paper PMC2064162", "about": "(The Journal of Cell Biology, 2006)", "target": "Sar1p (yeast, UniProt P20606 1-190)", "sequence (P20606 whole entry)": "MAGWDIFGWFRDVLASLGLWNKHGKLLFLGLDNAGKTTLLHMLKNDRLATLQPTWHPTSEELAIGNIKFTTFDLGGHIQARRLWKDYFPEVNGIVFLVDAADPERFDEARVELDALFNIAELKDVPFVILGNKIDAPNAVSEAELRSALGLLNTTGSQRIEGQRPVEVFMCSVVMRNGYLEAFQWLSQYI", "assay": "pull-down"}
{"binder": "MRRRSRC", "note": "[GalNAcT2 cytoplasmic domain peptide (wild type, MRRRSRC)]", "values": [{"measurement": "binding result", "value": "binds"}]}
